Values of other authors, collected in paper PMC5148012.

Target: GP1bα (glycocalicin) glycocalicin (extracellular part) (Homo sapiens) (UniProt P07359)
Chain of UniProt P07359 (P07359 17-506): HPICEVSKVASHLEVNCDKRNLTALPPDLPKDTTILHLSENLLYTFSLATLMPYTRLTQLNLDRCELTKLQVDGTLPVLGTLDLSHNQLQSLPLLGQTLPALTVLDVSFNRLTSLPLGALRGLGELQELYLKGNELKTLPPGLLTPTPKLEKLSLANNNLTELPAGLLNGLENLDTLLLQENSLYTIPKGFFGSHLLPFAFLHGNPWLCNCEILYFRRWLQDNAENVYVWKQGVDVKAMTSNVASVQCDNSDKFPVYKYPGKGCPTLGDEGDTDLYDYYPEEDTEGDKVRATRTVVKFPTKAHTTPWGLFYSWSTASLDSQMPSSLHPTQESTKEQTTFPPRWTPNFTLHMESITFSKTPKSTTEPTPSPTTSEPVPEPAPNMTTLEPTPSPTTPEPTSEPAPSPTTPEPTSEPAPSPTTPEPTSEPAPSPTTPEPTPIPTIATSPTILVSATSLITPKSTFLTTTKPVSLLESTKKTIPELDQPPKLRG

In the case of HbA (from UniProt P69905), the Kd is listed as 44.2 µM.
